Experimental findings from US7127357 (SALK INSTITUTE FOR BIOLOGICAL STUDIES, dated 2006) are described below.

First the molecules themselves.
B1: STSpTPR (Myt1-T455), rhodamine-labeled (peptide)
peptide: STS[pT]PR
modifications: also: tetramethylrhodamine label on an amine
notes: Six-residue peptide derived from human Myt1
B2: PPGpSPP (Myt1-S416), rhodamine-labeled (peptide)
peptide: PPG[pS]PP
modifications: also: tetramethylrhodamine label on an amine
notes: as for B1
B3: VPRpTPV (Cdc25c-T48), rhodamine-labeled (peptide)
peptide: VPR[pT]PV
modifications: also: tetramethylrhodamine label on an amine
notes: Six-residue peptide derived from human Cdc25c
B4: PPApTPP (Myt1-T412), rhodamine-labeled (peptide)
peptide: PPA[pT]PP
modifications: also: tetramethylrhodamine label on an amine
notes: as for B1

Non-standard residues stand in square brackets, D forms with d. No end group written: not given here. pT = C[C@@H](OP(=O)(O)O)[C@H](N)C(=O)O; pS = N[C@@H](COP(=O)(O)O)C(=O)O

For the experiment, the target named is T1, isolated PPIase domain of human Pin1 (human, UniProt Q13526 50-163).
T1 construct: range 50-163; also called Pin1 PPIase domain
T1 sequence (Q13526 50-163 limits assumed): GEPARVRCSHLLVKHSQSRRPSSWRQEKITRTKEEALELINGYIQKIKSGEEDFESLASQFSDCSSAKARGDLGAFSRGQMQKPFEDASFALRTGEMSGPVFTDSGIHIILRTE
In words: fluorescence anisotropy, rhodamine-labeled peptide. A general note: Polarisation of emitted light reports the rotation of a fluorescent probe.
Protocol: Binding Analysis. […] Lyophilized peptides were dissolved in 25 mM HEPES-Na^+ (pH 7.5), 100 mM NaCl, 1 mM DTT and stored for short periods of time at −20° C. Peptides were labeled with the amine reactive reagent tetramethylrhodamine-5-(and-6)-isothiocyanate (Molecular Probes, Inc. Eugene, Oreg.) using a 2:1 molar ratio of rhodamine to peptide in 0.1 M sodium bicarbonate (pH 9.0) at ambient temperature for 10 hr. Fluorescence data were collected on a PTI Alphascan spectrofluorimeter (Photon Technology Instruments, Santa Clara, Calif.).
With B1, the binding result was “no binding”.
For the molecule B2, the binding result is recorded as “no binding”.
As to B3, the binding result is “no binding”.
In the case of B4, the binding result was “no binding”.
